Measurements published in PMC8500918.

Biological target: Cadherin-11 extracellular domain 1 (EC1), wild type
Assay: NMR

Chain of Cadherin-11 extracellular domain 1 (EC1), wild type (P55288 1-98): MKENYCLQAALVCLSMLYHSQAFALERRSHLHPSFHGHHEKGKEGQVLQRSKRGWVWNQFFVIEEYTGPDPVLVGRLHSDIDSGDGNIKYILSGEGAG

Work on “Cadherin-11 extracellular domain 1 (EC1), wild type (domain or fragment)” yielded a stoichiometry N of 2.
